# From US20240261333A1, “NOVEL TARGETS FOR ENHANCING ANTI-TUMOR IMMUNITY” (THE BROAD INSTITUTE, INC., priority 2021, published 2024)
# Key:
# ABCD1 (human) = ABCD1 (human) (UniProt P33897); assay: IgG control IP from lysate of N-FLAG B3GNT2 cells, mass spectrometry
# ACSL3 (human) = ACSL3 (human) (UniProt O95573); assay: as above
# AIFM1 (human) = AIFM1 (human) (UniProt O95831); assay: as above
# ATAD3A (human) = ATAD3A (human) (UniProt Q9NVI7); assay: as above
# DNAJA3 (human) = DNAJA3 (human) (UniProt Q96EY1); assay: as above
# DNAJA3 (human), sequence (Q96EY1 other isoform, or with tags, fused parts or gaps limits assumed): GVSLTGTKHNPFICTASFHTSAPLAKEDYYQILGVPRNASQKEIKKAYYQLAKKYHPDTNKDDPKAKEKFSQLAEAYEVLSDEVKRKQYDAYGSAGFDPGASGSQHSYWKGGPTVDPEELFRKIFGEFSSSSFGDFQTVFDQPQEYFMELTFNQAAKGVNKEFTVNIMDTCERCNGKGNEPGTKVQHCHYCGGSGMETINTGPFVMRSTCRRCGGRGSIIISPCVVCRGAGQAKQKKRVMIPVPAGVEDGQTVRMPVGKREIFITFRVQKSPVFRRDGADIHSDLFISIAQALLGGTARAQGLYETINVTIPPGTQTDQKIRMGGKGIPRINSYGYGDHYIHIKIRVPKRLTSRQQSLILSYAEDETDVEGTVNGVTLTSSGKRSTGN
# EEF2 (human) = EEF2 (human) (UniProt P13639); assay: as above
# ELOC (human) = ELOC (human) (UniProt Q15369); assay: as above
# ELOC (human), sequence (Q15369 whole entry): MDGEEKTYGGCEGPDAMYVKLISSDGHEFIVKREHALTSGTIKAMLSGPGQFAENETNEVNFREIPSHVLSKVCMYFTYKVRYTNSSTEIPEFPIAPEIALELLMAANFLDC
# ERP29 (human) = ERP29 (human) (UniProt P30040); assay: as above
# FBXO6 (human) = FBXO6 (human) (UniProt Q9NRD1); assay: as above
# FBXO6 (human), sequence (Q9NRD1 whole entry): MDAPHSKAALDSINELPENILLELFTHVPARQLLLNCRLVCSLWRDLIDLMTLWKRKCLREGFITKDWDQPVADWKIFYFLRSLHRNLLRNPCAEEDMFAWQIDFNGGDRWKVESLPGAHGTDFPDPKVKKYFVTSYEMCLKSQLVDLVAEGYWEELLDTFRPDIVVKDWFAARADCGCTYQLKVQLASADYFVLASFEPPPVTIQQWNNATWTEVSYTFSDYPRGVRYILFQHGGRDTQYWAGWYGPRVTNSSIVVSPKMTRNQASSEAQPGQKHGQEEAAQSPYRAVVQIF
# HSP90AB1 (human) = HSP90AB1 (human) (UniProt P08238); assay: as above
# KTN1 (human) = KTN1 (human) (UniProt Q86UP2); assay: as above
# LARP4 (human) = LARP4 (human) (UniProt Q71RC2); assay: as above
# LDHA (human) = LDHA (human) (UniProt P00338); assay: as above
# PDIA4 (human) = PDIA4 (human) (UniProt P13667); assay: as above
# PDIA4 (human), sequence (P13667 21-645 limits assumed): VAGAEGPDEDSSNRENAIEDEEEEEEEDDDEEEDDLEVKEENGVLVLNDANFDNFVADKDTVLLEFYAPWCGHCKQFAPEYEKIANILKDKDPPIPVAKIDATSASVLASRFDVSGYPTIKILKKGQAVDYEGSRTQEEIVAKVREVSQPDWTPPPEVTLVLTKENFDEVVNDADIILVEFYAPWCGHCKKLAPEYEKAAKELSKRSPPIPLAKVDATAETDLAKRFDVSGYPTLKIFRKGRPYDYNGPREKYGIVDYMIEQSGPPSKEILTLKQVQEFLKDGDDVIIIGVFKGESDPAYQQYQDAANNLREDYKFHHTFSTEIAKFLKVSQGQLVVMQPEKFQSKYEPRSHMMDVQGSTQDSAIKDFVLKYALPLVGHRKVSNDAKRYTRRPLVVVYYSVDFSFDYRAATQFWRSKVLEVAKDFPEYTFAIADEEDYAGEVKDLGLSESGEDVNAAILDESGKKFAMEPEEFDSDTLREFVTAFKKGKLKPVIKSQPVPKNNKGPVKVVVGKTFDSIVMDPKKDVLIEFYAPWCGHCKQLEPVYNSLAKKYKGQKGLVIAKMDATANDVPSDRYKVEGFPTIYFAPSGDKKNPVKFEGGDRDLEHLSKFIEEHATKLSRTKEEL
# PGAM5 (human) = PGAM5 (human) (UniProt Q96HS1); assay: as above
# PSMB6 (human) = PSMB6 (human) (UniProt P28072); assay: as above
# PSMB6 (human), sequence (P28072 35-239 limits assumed): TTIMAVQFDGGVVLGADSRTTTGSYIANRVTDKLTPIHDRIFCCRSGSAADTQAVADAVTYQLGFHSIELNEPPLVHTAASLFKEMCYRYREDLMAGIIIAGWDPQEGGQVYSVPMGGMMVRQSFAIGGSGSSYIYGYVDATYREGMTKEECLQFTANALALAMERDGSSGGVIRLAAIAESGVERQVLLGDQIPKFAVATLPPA
# PSMC2 (human) = PSMC2 (human) (UniProt P35998); assay: as above
# PSMC2 (human), sequence (P35998 2-433 limits assumed): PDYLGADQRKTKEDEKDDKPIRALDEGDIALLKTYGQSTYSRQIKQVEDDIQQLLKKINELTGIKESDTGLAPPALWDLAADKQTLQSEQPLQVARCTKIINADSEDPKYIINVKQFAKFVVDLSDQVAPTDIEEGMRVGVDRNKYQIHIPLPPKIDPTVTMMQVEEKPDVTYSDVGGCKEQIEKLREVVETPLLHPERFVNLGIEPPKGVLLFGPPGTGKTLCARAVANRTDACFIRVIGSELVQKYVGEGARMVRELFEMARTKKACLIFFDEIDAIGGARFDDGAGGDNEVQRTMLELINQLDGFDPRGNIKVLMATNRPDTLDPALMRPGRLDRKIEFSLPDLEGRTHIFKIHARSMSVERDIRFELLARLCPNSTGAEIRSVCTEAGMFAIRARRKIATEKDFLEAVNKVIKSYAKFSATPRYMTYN
# PXN (human) = PXN (human) (UniProt P49023); assay: as above
# RCN1 (human) = RCN1 (human) (UniProt Q15293); assay: as above
# RCN1 (human), sequence (Q15293 30-331 limits assumed): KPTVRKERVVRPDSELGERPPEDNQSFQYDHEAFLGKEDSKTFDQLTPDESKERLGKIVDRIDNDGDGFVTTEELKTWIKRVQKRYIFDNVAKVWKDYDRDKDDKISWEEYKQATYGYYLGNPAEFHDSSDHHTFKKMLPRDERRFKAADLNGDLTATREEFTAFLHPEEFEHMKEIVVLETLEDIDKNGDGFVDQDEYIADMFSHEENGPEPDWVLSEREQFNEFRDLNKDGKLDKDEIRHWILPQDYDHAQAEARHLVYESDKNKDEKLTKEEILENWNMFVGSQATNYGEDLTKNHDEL
# RPL15 (human) = RPL15 (human) (UniProt P61313); assay: as above
# RRBP1 (human) = RRBP1 (human) (UniProt Q9P2E9); assay: as above
# UBTF (human) = UBTF (human) (UniProt P17480); assay: as above
# UBTF (human), sequence (P17480 other isoform, or with tags, fused parts or gaps limits assumed): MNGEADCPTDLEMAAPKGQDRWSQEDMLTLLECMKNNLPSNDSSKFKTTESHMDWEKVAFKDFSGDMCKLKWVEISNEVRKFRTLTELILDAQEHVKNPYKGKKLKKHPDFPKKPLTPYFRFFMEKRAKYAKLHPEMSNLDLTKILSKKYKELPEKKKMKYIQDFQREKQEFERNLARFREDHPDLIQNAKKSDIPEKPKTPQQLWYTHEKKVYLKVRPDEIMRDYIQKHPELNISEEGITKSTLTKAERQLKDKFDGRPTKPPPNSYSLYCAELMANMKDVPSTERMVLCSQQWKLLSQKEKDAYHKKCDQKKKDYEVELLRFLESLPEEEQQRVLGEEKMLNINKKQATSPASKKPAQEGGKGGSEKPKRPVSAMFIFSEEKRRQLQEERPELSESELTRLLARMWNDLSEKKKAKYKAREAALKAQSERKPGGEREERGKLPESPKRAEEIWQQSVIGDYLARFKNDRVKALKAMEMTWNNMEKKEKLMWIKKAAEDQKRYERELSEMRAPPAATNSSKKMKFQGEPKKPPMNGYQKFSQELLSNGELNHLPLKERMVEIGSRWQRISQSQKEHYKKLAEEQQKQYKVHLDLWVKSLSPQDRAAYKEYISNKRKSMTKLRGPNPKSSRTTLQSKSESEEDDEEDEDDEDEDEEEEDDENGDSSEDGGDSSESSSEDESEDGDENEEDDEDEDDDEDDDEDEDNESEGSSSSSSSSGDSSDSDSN
# ZRANB2 (human) = ZRANB2 (human) (UniProt O95218); assay: as above
# ZRANB2 (human), sequence (O95218 other isoform, or with tags, fused parts or gaps limits assumed): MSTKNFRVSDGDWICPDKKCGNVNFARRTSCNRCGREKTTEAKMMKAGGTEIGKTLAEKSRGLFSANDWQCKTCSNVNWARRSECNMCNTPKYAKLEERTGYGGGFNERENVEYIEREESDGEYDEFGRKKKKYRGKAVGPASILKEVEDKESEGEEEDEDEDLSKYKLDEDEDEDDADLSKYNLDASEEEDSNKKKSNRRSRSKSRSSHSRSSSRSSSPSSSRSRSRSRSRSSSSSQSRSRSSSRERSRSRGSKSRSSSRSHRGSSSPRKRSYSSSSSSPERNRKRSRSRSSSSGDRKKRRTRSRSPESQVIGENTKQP
# CPT1A (human) = CPT1A (human) (UniProt P50416); assay: co-IP with IgG control, lysate of C-FLAG B3GNT2 cells, mass spectrometry
# DDX17 (human) = DDX17 (human) (UniProt Q92841); assay: as above
# DDX17 (human), sequence (Q92841 whole entry): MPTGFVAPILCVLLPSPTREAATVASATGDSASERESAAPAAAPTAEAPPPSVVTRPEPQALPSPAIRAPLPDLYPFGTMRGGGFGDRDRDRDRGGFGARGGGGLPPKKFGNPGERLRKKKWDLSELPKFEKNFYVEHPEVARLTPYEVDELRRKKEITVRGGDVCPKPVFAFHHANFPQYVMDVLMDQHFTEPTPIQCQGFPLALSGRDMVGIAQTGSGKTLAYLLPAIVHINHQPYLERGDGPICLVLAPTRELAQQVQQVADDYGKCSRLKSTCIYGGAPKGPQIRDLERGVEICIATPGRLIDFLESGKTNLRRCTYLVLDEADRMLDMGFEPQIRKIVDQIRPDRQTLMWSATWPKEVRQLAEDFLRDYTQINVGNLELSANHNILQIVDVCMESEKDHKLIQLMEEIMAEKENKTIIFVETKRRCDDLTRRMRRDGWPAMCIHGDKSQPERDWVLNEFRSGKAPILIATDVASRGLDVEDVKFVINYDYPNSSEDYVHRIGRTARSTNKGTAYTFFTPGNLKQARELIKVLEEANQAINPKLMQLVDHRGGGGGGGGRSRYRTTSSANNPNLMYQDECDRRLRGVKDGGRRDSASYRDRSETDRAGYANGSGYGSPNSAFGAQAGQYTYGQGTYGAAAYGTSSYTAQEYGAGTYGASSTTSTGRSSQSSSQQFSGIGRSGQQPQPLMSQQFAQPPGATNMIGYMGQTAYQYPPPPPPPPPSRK
# DDX3X (human) = DDX3X (human) (UniProt O00571); assay: as above
# HNRNPH1 (human) = HNRNPH1 (human) (UniProt P31943); assay: as above
# LAMC1 (human) = LAMC1 (human) (UniProt P11047); assay: as above
# MMS19 (human) = MMS19 (human) (UniProt Q96T76); assay: as above
# P4HA2 (human) = P4HA2 (human) (UniProt O15460); assay: as above
# PLOD1 (human) = PLOD1 (human) (UniProt Q02809); assay: as above
# PSMB5 (human) = PSMB5 (human) (UniProt P28074); assay: as above
# PSMB5 (human), sequence (P28074 60-263 limits assumed): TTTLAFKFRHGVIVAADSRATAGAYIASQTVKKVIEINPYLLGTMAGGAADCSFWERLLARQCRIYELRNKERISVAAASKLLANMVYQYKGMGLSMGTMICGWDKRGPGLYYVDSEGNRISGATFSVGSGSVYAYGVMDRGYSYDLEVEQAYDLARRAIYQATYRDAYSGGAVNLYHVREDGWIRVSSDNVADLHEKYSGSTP
# PURA (human) = PURA (human) (UniProt Q00577); assay: as above
# RPL17 (human) = RPL17 (human) (UniProt P18621); assay: as above
# RPL7A (human) = RPL7A (human) (UniProt P62424); assay: as above
# RPS20 (human) = RPS20 (human) (UniProt P60866); assay: as above
# RUVBL2 (human) = RUVBL2 (human) (UniProt Q9Y230); assay: as above
# RUVBL2 (human), sequence (Q9Y230 2-463 limits assumed): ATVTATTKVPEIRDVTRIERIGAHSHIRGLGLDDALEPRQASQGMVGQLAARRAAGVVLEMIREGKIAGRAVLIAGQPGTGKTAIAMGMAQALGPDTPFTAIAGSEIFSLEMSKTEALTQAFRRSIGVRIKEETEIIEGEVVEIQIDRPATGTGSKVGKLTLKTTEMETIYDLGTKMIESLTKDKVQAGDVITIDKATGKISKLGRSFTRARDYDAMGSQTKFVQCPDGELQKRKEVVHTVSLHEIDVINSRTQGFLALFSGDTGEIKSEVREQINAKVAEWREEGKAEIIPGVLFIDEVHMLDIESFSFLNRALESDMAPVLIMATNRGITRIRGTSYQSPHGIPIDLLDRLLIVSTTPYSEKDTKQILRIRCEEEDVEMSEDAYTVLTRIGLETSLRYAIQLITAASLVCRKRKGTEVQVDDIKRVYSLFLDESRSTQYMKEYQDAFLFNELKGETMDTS
# TGM1 (human) = TGM1 (human) (UniProt P22735); assay: as above
# UniProt P01837.1 = assay: as above
substance,measurement,setting,value
IgG control (Millipore Sigma 12-371) (antibody),co-IP mass spectrometry count,ABCD1 (human),0
same,co-IP mass spectrometry count,ACSL3 (human),0
same,co-IP mass spectrometry count,AIFM1 (human),0
same,co-IP mass spectrometry count,ATAD3A (human),0
same,co-IP mass spectrometry count,DNAJA3 (human),0
same,co-IP mass spectrometry count,EEF2 (human),0
same,co-IP mass spectrometry count,ELOC (human),0
same,co-IP mass spectrometry count,ERP29 (human),0
same,co-IP mass spectrometry count,FBXO6 (human),0
same,co-IP mass spectrometry count,HSP90AB1 (human),0
same,co-IP mass spectrometry count,KTN1 (human),0
same,co-IP mass spectrometry count,LARP4 (human),0
same,co-IP mass spectrometry count,LDHA (human),0
same,co-IP mass spectrometry count,PDIA4 (human),0
same,co-IP mass spectrometry count,PGAM5 (human),0
same,co-IP mass spectrometry count,PSMB6 (human),0
same,co-IP mass spectrometry count,PSMC2 (human),0
same,co-IP mass spectrometry count,PXN (human),0
same,co-IP mass spectrometry count,RCN1 (human),0
same,co-IP mass spectrometry count,RPL15 (human),0
same,co-IP mass spectrometry count,RRBP1 (human),0
same,co-IP mass spectrometry count,UBTF (human),0
same,co-IP mass spectrometry count,ZRANB2 (human),0
same,"co-IP/MS count, C-term IgG",CPT1A (human),0
same,"co-IP/MS count, C-term IgG",DDX17 (human),22
same,"co-IP/MS count, C-term IgG",DDX3X (human),15
same,"co-IP/MS count, C-term IgG",HNRNPH1 (human),11
same,"co-IP/MS count, C-term IgG",LAMC1 (human),0
same,"co-IP/MS count, C-term IgG",MMS19 (human),0
same,"co-IP/MS count, C-term IgG",P4HA2 (human),0
same,"co-IP/MS count, C-term IgG",PLOD1 (human),0
same,"co-IP/MS count, C-term IgG",PSMB5 (human),0
same,"co-IP/MS count, C-term IgG",PURA (human),0
same,"co-IP/MS count, C-term IgG",RPL17 (human),2
same,"co-IP/MS count, C-term IgG",RPL7A (human),5
same,"co-IP/MS count, C-term IgG",RPS20 (human),5
same,"co-IP/MS count, C-term IgG",RUVBL2 (human),0
same,"co-IP/MS count, C-term IgG",TGM1 (human),10
same,"co-IP/MS count, C-term IgG",UniProt P01837.1,108
